# Assay results: IntAct's records for PubMed 31515488
# B1: ATP synthase mitochondrial F1 complex assembly factor 2 (Homo sapiens), Q8N5M1 (parent)
# chain: MWRSCLRLRDGGRRLLNRPAGGPSASMSPGPTIPSPARAYAPPTERKRFYQNVSITQGEGGFEINLDHRKLKTPQAKLFTVPSEALAIAVATEWDSQQDTIKYYTMHLTTLCNTSLDNPTQRNKDQLIRAAVKFLDTDTICYRVEEPETLVELQRNEWDPIIEWAEKRYGVEISSSTSIMGPSIPAKTREVLVSHLASYNTWALQGIEFVAAQLKSMVLTLGLIDLRLTVEQAVLLSRLEEEYQIQKWGNIEWAHDYELQELRARTAAGTLFIHLCSESTTVKHKLLKE
# B2: Copper homeostasis protein cutC homolog (Homo sapiens), Q9NTM9 (parent)
# chain: MKRQGASSERKRARIPSGKAGAANGFLMEVCVDSVESAVNAERGGADRIELCSGLSEGGTTPSMGVLQVVKQSVQIPVFVMIRPRGGDFLYSDREIEVMKADIRLAKLYGADGLVFGALTEDGHIDKELCMSLMAICRPLPVTFHRAFDMVHDPMAALETLLTLGFERVLTSGCDSSALEGLPLIKRLIEQAKGRIVVMPGGGITDRNLQRILEGSGATEFHCSARSTRDSGMKFRNSSVAMGASLSCSEYSLKVTDVTKVRTLNAIAKNILV
# partner: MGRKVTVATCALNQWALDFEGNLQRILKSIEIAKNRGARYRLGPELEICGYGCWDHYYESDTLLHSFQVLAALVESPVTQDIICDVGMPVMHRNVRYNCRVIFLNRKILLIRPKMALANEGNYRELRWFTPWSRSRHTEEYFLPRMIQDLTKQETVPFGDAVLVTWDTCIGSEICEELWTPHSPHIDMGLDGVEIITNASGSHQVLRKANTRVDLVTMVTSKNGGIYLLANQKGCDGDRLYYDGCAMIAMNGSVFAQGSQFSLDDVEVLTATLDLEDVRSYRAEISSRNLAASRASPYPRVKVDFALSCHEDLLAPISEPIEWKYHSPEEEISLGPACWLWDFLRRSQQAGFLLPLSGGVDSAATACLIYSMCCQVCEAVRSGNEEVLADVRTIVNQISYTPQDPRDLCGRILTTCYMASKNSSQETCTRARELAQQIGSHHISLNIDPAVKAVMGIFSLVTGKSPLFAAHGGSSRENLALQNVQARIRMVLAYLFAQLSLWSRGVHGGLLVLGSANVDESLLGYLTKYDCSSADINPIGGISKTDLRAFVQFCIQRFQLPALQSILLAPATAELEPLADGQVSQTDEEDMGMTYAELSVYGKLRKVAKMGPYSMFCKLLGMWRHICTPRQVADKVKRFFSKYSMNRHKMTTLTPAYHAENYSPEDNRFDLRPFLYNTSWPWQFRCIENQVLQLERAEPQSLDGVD
# B3: UDP-galactose translocator (Homo sapiens), P78381 (parent)
# chain: MAAVGAGGSTAAPGPGAVSAGALEPGTASAAHRRLKYISLAVLVVQNASLILSIRYARTLPGDRFFATTAVVMAEVLKGLTCLLLLFAQKRGNVKHLVLFLHEAVLVQYVDTLKLAVPSLIYTLQNNLQYVAISNLPAATFQVTYQLKILTTALFSVLMLNRSLSRLQWASLLLLFTGVAIVQAQQAGGGGPRPLDQNPGAGLAAVVASCLSSGFAGVYFEKILKGSSGSVWLRNLQLGLFGTALGLVGLWWAEGTAVATRGFFFGYTPAVWGVVLNQAFGGLLVAVVVKYADNILKGFATSLSIVLSTVASIRLFGFHVDPLFALGAGLVIGAVYLYSLPRGAAKAIASASASASGPCVHQQPPGQPPPPQLSSHRGDLITEPFLPKLLTKVKGS
# B4: Homeobox protein VENTX (Homo sapiens), O95231 (parent)
# chain: MRLSSSPPRGPQQLSSFGSVDWLSQSSCSGPTHTPRPADFSLGSLPGPGQTSGAREPPQAVSIKEAAGSSNLPAPERTMAGLSKEPNTLRAPRVRTAFTMEQVRTLEGVFQHHQYLSPLERKRLAREMQLSEVQIKTWFQNRRMKHKRQMQDPQLHSPFSGSLHAPPAFYSTSSGLANGLQLLCPWAPLSGPQALMLPPGSFWGLCQVAQEALASAGASCCGQPLASHPPTPGRPSLGPALSTGPRGLCAMPQTGDAF
# partner: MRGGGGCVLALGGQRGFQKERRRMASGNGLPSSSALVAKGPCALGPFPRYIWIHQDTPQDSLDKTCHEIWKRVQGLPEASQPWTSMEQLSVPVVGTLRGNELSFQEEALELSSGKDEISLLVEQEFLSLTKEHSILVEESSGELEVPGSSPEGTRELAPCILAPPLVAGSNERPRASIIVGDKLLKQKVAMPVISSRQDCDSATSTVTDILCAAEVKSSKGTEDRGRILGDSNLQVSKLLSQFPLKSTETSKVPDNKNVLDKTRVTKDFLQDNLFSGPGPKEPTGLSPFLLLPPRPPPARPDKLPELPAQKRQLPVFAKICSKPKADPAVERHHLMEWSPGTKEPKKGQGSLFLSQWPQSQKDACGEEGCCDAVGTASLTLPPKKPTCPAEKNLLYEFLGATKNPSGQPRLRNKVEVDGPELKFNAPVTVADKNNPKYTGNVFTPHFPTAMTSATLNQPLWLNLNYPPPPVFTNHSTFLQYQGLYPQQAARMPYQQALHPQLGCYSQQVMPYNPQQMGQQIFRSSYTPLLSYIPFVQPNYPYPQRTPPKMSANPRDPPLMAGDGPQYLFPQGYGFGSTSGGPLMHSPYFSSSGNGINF
# B5: Ribosome quality control complex subunit TCF25 (Homo sapiens), Q9BQ70 (parent)
# chain: MSRRALRRLRGEQRGQEPLGPGALHFDLRDDDDAEEEGPKRELGVRRPGGAGKEGVRVNNRFELINIDDLEDDPVVNGERSGCALTDAVAPGNKGRGQRGNTESKTDGDDTETVPSEQSHASGKLRKKKKKQKNKKSSTGEASENGLEDIDRILERIEDSTGLNRPGPAPLSSRKHVLYVEHRHLNPDTELKRYFGARAILGEQRPRQRQRVYPKCTWLTTPKSTWPRYSKPGLSMRLLESKKGLSFFAFEHSEEYQQAQHKFLVAVESMEPNNIVVLLQTSPYHVDSLLQLSDACRFQEDQEMARDLVERALYSMECAFHPLFSLTSGACRLDYRRPENRSFYLALYKQMSFLEKRGCPRTALEYCKLILSLEPDEDPLCMLLLIDHLALRARNYEYLIRLFQEWEAHRNLSQLPNFAFSVPLAYFLLSQQTDLPECEQSSARQKASLLIQQALTMFPGVLLPLLESCSVRPDASVSSHRFFGPNAEISQPPALSQLVNLYLGRSHFLWKEPATMSWLEENVHEVLQAVDAGDPAVEACENRRKVLYQRAPRNIHRHVILSEIKEAVAALPPDVTTQSVMGFDPLPPSDTIYSYVRPERLSPISHGNTIALFFRSLLPNYTMEGERPEEGVAGGLNRNQGLNRLMLAVRDMMANFHLNDLEAPHEDDAEGEGEWD
# partner: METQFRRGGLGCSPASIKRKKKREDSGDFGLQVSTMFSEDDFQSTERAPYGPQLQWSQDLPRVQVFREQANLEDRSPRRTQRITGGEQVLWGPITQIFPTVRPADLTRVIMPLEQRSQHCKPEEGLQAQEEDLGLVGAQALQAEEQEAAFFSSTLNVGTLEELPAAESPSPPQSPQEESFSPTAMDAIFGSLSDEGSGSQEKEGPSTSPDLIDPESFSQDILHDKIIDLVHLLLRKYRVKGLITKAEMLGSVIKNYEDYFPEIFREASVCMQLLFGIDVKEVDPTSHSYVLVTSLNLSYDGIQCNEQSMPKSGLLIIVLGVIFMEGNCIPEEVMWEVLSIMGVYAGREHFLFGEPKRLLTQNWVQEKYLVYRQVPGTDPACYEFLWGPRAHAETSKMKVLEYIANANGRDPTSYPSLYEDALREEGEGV
# B6: Bcl-2-interacting killer (Homo sapiens), Q13323 (parent)
# chain: MSEVRPLSRDILMETLLYEQLLEPPTMEVLGMTDSEEDLDPMEDFDSLECMEGSDALALRLACIGDEMDVSLRAPRLAQLSEVAMHSLGLAFIYDQTEDIRDVLRSFMDGFTTLKENIMRFWRSPNPGSWVSCEQVLLALLLLLALLLPLLSGGLHLLLK
# B7: Protein FAM168A (Homo sapiens), Q92567 (parent)
# chain: MNPVYSPVQPGAPYGNPKNMAYTGYPTAYPAAAPAYNPSLYPTNSPSYAPEFQFLHSAYATLLMKQAWPQNSSSCGTEGTFHLPVDTGTENRTYQASSAAFRYTAGTPYKVPPTQSNTAPPPYSPSPNPYQTAMYPIRSAYPQQNLYAQGAYYTQPVYAAQPHVIHHTTVVQPNSIPSAIYPAPVAAPRTNGVAMGMVAGTTMAMSAGTLLTTPQHTAIGAHPVSMPTYRAQGTPAYSYVPPHW
# partner: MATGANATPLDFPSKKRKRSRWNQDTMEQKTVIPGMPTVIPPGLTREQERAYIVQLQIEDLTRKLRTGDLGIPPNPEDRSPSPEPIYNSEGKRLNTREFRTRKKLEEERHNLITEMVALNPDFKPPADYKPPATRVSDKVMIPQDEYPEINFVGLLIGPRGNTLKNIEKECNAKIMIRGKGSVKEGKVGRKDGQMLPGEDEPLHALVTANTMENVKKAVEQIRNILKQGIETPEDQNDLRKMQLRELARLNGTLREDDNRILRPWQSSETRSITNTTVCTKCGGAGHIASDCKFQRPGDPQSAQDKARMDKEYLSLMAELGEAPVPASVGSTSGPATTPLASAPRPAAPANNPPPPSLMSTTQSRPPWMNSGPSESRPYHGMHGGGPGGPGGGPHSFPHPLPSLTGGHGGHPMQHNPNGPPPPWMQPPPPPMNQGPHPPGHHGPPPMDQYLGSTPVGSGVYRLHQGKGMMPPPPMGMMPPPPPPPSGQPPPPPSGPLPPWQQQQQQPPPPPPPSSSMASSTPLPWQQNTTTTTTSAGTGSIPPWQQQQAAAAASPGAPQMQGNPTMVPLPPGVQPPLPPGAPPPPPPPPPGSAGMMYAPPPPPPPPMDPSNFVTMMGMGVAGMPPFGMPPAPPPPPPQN
# B8: BRCA1-A complex subunit RAP80 (Homo sapiens), Q96RL1-2 (parent)
# chain: MPRRKKKVKEVSESRNLEKKDVETTSSVSVKRKRRLEDAFIVISDSDGEEPKEENGLQKTKTKQSNRAKCLAKRKIAQMTEEEQFALALKMSEQEAREVNSQEEEEEELLRKAIAESLNSCRPSDASATRSRPLATGPSSQSHQEKTTDSGLTEGIWQLVPPSLFKGSHISQGNEAEEREEPWDHTEKTEEEPVSGSSGSWDQSSQPVFENVNVKSFDRCTGHSAEHTQCGKPQSSQGIVEETSEEGNSVPASQSVAALTSKRSLVLMPESSAEEITVCPETQLSSSETFDLEREVSPGSRDILDGVRIIMADKEVGNKEDAEKEVAISTFSSSNQVSCPLCDQCFPPTKIERHAMYCNGLMEEDTVLTRRQKEAKTKSDSGTAAQTSLDIDKNEKCYLCKSLVPFREYQCHVDSCLQLAKADQGDGPEGSGRACSTVEGKWQQRLKNPKEKGHSEGRLLSFLEQSEHKTSDADIKSSETGAFRVPSPGMEEAGCSREMQSSFTRRDLNESPVKSFVSISEATDCLVDFKKQVTVQPGSRTRTKAGRGRRRKF
# partner: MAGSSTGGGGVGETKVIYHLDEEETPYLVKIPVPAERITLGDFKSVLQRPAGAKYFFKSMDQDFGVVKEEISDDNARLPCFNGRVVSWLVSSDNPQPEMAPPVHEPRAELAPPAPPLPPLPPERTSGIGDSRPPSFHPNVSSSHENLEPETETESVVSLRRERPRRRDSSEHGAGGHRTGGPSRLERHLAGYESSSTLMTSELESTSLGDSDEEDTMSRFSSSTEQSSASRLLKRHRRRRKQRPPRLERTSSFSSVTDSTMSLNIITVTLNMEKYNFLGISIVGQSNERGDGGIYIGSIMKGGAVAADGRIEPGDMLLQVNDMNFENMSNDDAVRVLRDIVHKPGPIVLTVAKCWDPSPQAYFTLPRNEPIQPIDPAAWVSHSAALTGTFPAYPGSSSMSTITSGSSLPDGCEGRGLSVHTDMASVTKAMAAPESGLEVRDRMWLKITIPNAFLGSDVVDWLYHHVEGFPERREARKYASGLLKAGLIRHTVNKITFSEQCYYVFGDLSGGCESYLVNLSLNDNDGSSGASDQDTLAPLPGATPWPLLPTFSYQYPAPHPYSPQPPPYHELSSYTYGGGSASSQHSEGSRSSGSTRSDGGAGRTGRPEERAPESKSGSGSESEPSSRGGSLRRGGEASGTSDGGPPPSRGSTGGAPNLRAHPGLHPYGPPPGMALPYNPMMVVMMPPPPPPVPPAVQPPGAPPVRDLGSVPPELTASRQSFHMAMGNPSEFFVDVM
# Variants of: B1
# Settings: with tri23_human TRIM23, P36406
# tri23_human TRIM23, P36406, sequence (P36406 whole entry): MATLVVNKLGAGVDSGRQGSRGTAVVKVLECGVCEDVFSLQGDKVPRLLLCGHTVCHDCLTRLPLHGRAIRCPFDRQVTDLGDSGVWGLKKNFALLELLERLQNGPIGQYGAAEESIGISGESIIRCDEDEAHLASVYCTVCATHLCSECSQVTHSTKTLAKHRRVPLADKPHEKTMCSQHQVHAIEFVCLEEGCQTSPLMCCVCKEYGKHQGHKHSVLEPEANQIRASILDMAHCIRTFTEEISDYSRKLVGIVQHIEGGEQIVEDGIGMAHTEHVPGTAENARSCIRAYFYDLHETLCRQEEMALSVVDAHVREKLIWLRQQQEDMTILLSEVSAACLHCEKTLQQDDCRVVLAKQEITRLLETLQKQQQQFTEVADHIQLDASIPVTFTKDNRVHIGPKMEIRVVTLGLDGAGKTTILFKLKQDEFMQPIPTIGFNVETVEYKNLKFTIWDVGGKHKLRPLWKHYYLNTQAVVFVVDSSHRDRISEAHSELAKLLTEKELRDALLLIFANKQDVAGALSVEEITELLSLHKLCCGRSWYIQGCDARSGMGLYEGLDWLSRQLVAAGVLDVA
row,effect of a mutation on the interaction,Variant
1,with no effect,E241G

# Variants of: B1
# Settings: with ews_human EWSR1, Q01844
# ews_human EWSR1, Q01844, sequence (Q01844 whole entry): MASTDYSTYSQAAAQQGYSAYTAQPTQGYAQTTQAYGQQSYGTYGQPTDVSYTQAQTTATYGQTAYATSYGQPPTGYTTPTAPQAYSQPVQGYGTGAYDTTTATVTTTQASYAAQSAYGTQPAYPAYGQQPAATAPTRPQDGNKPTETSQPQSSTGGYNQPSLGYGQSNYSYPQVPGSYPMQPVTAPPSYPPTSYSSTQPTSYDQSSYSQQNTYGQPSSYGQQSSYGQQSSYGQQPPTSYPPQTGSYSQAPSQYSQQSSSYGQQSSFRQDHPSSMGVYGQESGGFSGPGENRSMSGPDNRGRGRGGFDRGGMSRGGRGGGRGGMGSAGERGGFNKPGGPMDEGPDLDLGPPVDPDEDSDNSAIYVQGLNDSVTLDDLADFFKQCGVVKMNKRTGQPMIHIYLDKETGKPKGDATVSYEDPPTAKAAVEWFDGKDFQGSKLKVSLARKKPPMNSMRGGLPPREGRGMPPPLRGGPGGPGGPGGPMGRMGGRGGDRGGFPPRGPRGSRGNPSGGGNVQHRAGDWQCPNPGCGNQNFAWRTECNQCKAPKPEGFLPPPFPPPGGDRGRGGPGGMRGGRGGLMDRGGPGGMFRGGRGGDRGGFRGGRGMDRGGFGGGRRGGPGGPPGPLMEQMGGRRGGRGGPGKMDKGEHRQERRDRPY
row,effect of a mutation on the interaction,Variant
1,with no effect,E241G

# Variants of: B2
# Settings: with nade_human NADSYN1, Q6IA69
row,effect of a mutation on the interaction,Variant
1,disrupting interaction strength,P77L

# Variants of: B3
# Settings: with pls1_human PLSCR1, O15162
# pls1_human PLSCR1, O15162, sequence (O15162 whole entry): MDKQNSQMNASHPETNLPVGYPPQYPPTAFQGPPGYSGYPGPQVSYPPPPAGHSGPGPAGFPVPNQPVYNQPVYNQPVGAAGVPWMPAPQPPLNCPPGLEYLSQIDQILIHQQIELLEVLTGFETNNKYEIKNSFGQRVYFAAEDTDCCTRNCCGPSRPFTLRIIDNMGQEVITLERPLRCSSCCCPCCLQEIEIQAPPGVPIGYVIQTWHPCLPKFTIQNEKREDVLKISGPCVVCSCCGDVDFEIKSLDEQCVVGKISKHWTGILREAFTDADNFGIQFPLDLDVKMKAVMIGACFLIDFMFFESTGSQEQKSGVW
row,effect of a mutation on the interaction,Variant
1,with no effect,A57T

# Variants of: B4
# Settings: with ca094_human C1orf94, Q6P1W5
row,effect of a mutation on the interaction,Variant
1,with no effect,L42P
2,with no effect,M251V
3,with no effect,A226E

# Variants of: B5
# Settings: with magab_human MAGEA11, P43364
row,effect of a mutation on the interaction,Variant
1,with no effect,V526A

# Variants of: B6
# Settings: with BCL2L1, Q07817
# BCL2L1, Q07817, sequence (Q07817 whole entry): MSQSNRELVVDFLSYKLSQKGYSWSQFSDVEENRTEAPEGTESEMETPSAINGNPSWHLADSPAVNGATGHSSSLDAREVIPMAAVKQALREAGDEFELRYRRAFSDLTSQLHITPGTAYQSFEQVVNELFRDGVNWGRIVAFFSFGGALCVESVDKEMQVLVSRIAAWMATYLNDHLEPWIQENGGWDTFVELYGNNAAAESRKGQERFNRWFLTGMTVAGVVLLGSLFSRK
row,effect of a mutation on the interaction,Variant
1,with no effect,D69E

# Variants of: B7
# Settings: with sf01_human SF1, Q15637
row,effect of a mutation on the interaction,Variant
1,disrupting interaction strength,P122R

# Variants of: B8
# Settings: with dvl2_human DVL2, O14641
row,effect of a mutation on the interaction,Variant
1,with no effect,G48E
